According to patent publication US20210063414A1, “METHODS FOR PREVENTING AND/OR TREATING BONE LOSS CONDITIONS BY MODULATING IRISIN” (Dana-Farber Cancer Institute, Inc., priority 2018, published 2021):
“Also recorded” adds a separate entry of the source.

Tests used:
integrin αV/β5 [1] = target: integrin αV/β5 (Homo sapiens, UniProt P06756+P18084); assay: Differential HDX/MS of irisin and integrin αV/β5; type: binding; details: 10 μM irisin, 30 μM integrin αV/β5
Protocol: Differential HDX-MS experiments were conducted as previously described with a few modifications (Chalmers et al. (2006) Anal. Chen. 78:1005-1014).
Protein samples were injected for inline pepsin digestion and the resulting peptides were identified using tandem MS (MS/MS) with an Orbitrap™ mass spectrometer (Fusion Lumos, ThermoFisher). Following digestion, peptides were desalted on a C8 trap column and separated on a 1 hour linear gradient of 5-40% B (A is 0.3% formic acid and B is 0.3% formic acid 95% CH3CN). Product ion spectra were acquired in data-dependent mode with a one second duty cycle such that the most abundant ions selected for the product ion analysis by higher-energy collisional dissociation between survey scan events occurring once per second. Following MS2 acquisition, the precursor ion was excluded for 16 seconds. […]
HDX-MS analysis: Apo proteins (irisin and integrin αV/β5) were analyzed at 10 μM each. […] The intensity weighted mean m/z centroid value of each peptide envelope was calculated and subsequently converted into a percentage of deuterium incorporation. […] Statistical significance for the differential HDX data was determined by an unpaired t-test for each time point, a procedure that was integrated into the HDX Workbench software (Pascal et al. (2012) J Am. Soc. Mass Spectrom. 23:1512-1521). […]

integrin αV/β5 [2] = assay: Protein-protein binding assay: irisin with his-tag integrins, Ni-NTA co-precipitation and immunoblot; parameters: species or system murine and human; details: 100 nM irisin, 5 nM his-tag integrin
Protocol: 100 nM irisin was incubated with 5 nM indicated his-tag integrins followed by immunoprecipitation using Ni-NTA agaroses. Precipitated integrins and co-precipitated irisin were analyzed by immunoblot analysis. […] HEK293T cells were seeded and incubated until 50% cell density. The cells were transfected with 0.1 μg plasmids of indicated integrins. After 48 hours, the cells were incubated with Freestyle293 medium for 3 hours and were treated with indicated concentration of irisin for 5 minutes. Cells were lysed to detect the indicated protein level using immunoblot analysis. […] Sclerostin mRNA level was analyzed by qRT-PCR. […]
100 nM irisin was incubated with 5 nM indicated his-tag integrins followed by immunoprecipitation using Ni-NTA agaroses. Precipitated integrins and co-precipitated irisin were analyzed by immunoblot analysis. […] Cells were treated and analyzed as FIG. 14B except using plasmids encoding integrin α5/β1 or integrin α11/β1 (FIG. 15C) integrin αV/β1(FIG. 15D).
100 nM flag-tagged mammalian irisin was incubated with 5 nM of the indicated his-tag integrins in a final volume of 600 μl in 1.5 ml Protein LoBind Tubes (Eppendorf®, 022431081) for 5 minutes at room temperature under rotation. […] Precipitated integrins were detected by immunoblot analysis against his tag. Co-precipitated irisin was detected by immunoblot analysis against flag-tag.

Sequence of integrin αV/β5 (Homo sapiens, UniProt P06756+P18084) (P18084 24-719 limits assumed): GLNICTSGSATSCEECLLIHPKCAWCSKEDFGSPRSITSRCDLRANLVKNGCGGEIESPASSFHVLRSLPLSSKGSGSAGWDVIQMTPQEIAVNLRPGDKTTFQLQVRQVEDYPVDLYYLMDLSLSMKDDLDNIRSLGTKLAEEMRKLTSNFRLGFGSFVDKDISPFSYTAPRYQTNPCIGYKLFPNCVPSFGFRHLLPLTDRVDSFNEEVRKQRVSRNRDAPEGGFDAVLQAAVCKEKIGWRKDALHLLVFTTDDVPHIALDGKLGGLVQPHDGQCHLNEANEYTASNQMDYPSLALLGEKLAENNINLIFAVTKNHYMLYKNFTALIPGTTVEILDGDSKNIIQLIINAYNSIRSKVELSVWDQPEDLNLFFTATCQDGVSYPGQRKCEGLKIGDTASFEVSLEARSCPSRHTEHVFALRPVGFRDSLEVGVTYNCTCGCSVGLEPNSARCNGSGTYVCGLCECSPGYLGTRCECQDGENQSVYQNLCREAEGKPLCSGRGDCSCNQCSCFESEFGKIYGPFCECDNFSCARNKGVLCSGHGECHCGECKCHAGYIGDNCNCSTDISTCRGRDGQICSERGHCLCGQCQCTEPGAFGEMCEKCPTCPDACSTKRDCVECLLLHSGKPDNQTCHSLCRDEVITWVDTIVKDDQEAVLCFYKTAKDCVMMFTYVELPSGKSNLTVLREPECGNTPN
Sequence of integrin αV/β5 (Homo sapiens, UniProt P06756+P18084) (P06756 31-889 limits assumed): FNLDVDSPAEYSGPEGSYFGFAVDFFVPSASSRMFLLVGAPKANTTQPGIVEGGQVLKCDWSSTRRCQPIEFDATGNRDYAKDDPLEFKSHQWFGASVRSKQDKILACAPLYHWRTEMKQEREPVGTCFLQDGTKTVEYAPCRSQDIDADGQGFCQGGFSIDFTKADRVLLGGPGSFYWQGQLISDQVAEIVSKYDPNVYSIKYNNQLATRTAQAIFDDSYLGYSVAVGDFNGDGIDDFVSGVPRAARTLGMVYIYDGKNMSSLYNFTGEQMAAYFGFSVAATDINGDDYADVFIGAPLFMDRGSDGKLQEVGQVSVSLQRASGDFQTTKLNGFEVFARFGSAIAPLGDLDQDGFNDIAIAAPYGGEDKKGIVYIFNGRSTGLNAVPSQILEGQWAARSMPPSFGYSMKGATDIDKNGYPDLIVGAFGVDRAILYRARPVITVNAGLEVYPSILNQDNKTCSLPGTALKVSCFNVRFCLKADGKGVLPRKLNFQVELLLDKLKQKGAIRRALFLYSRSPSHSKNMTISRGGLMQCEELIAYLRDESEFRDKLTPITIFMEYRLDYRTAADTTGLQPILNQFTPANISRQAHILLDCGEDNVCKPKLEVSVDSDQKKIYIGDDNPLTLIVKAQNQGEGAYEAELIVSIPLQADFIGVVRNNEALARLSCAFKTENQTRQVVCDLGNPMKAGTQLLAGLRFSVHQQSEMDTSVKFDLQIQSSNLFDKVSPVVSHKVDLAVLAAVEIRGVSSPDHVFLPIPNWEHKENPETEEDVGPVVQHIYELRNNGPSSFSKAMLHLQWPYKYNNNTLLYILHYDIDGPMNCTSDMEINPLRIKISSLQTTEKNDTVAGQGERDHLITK
Sequence of integrin αV/β5 (Homo sapiens, UniProt P06756+P18084) (P06756 891-992 partner limits assumed): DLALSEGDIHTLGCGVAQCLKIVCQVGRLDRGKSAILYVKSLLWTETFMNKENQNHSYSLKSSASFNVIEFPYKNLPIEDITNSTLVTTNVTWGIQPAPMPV

B1: irisin: secreted cleaved form of FNDC5; recombinant human/mouse irisin with C-terminal his tag produced in HEK293 cells (protein)
chain: DSPSAPVNVTVRHLKANSAVVSWDVLEDEVVIGFAISQQKKDVRMLRFIQEVNTTTRSCALWDLEEDTEYIVHVQAISIQGQSPASEPVLFKTPREAEKMASKNKDEVTMKE
modifications: left off: small tags and cut ends
notes: secreted cleaved form of FNDC5; recombinant human/mouse irisin with C-terminal his tag produced in HEK293 cells
For B1, the “direct interaction with integrin αV/β5 (HDX/MS)” value (integrin αV/β5 [1]) was “directly binds integrin αV/β5” and the “extent of binding of irisin to integrin complex” value (integrin αV/β5 [2]) was “by far the highest extent of binding; also recorded: highest apparent affinity”.
